Kd data for one substance are collected here from PMC3776355.

This test has as its target Ero1-α(WT), recombinant (human) (UniProt Q96HE7). The experiment in a line: SPR.
UniProt Q96HE7, sequence (Q96HE7 24-468): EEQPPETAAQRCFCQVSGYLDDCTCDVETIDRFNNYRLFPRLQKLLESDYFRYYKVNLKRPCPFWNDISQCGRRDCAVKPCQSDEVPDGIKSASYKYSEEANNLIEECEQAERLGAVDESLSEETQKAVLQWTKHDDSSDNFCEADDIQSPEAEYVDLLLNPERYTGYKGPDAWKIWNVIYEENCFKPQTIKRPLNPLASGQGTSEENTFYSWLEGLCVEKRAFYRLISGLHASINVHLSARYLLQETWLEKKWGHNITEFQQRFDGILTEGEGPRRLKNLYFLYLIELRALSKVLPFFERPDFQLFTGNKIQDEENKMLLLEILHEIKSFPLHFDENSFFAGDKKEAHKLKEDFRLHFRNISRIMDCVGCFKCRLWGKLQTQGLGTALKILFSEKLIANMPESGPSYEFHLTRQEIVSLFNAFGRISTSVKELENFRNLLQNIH

One may read the Kd as a measure of binding affinity in units of concentration. Consider “PDI, recombinant (wild type) (from UniProt P07237 18-508) (enzyme)”, for which the Kd came out at 1700 nM.
